This passage reports protein stability index results from the supplement of paper PMC10567573.

A short description of this data set: protein stability index of a GFP-peptide fusion (GPS, HEK-293T) (PSI 1-6); higher = more stable. As to conditions: c terminus: a fixed tail appended.

± gives the standard deviation.
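Note: 24-mer peptide tiles fused after GFP, lentivirally expressed, FACS-sorted into six equal bins by GFP/DsRed ratio, decoded by Illumina sequencing, PSI is the read-weighted mean bin number.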

Sequence SQVSYFTYIPENNARGASIFSVTA [PCDHGA10] yielded a protein stability index (treatment: DMSO) of 2.29 ± 0.56 and a protein stability index (treatment: MLN4924 1 uM, 8 h) of 2.39 ± 0.54.

As to SRELASMNLDIVDLLKKAKFHHSD [RHOBTB3], the protein stability index reads like this: (treatment: DMSO) 3.2 ± 0.2; (treatment: MLN4924 1 uM, 8 h) 3.09 ± 0.23.

Regarding SRELEPELRRRRYEYDHWDAAIHG [ALKBH7], the protein stability index runs as follows: (treatment: DMSO) 3.87 ± 0.25; (treatment: MLN4924 1 uM, 8 h) 3.92 ± 0.18.

Consider SRQYDKFLTHFILMNDVIDTSGFP [FBXO33], for which the protein stability index was found to be 2.51 ± 0.5 (treatment: DMSO) and 1.97 ± 0.5 (treatment: MLN4924 1 uM, 8 h).

Consider SRSQNTDMVQKSVSKTLPSTWSDP [CLINT1], for which the protein stability index runs as follows: (treatment: DMSO) 3.87 ± 0.28; (treatment: MLN4924 1 uM, 8 h) 3.98 ± 0.23.

For SSAGSVSPRSTSVTTTSSASVTTT [KRT13], the protein stability index worked out at 5.25 ± 0.15 (treatment: DMSO) and 5.23 ± 0.12 (treatment: MLN4924 1 uM, 8 h).

As to SSLFDLSVLKLHHSLQQSEPDLRH [SERTAD1], the protein stability index amounted to 3.23 ± 0.21 (treatment: DMSO) and 3.29 ± 0.3 (treatment: MLN4924 1 uM, 8 h).

Consider SSPDDKLLTSPRAINNLVLQGCSS [KLHL14], for which the protein stability index by setting is: (treatment: DMSO) 3.99 ± 0.17; (treatment: MLN4924 1 uM, 8 h) 4.14 ± 0.23.

Turning to SSPDLDDMKLIILANRLCLPHLVA [RHOBTB2], the protein stability index turned out to be 2.55 ± 0.5 (treatment: DMSO) and 2.44 ± 0.19 (treatment: MLN4924 1 uM, 8 h).

Sequence SSQPQDNSQVHRETEDVDYGETDF [TMEM40] had a protein stability index (treatment: DMSO) of 5.58 ± 0.26 and a protein stability index (treatment: MLN4924 1 uM, 8 h) of 5.64 ± 0.3.

SSRQEKRPLCAQGDWHSPTLIREK [ELOA2] had a protein stability index (treatment: DMSO) of 4.05 ± 0.24 and a protein stability index (treatment: MLN4924 1 uM, 8 h) of 4.23 ± 0.25.

For the sequence STAPGLFLVSTHTGEVRTARALLE [PCDHGC5], the protein stability index by setting is: (treatment: DMSO) 2.5 ± 0.27; (treatment: MLN4924 1 uM, 8 h) 2.54 ± 0.31.

The sequence STGYCWCVLVDTGRPIPGTSTRYE [SMOC2] showed a protein stability index (treatment: DMSO) of 2.64 ± 1.8 and a protein stability index (treatment: MLN4924 1 uM, 8 h) of 2.12 ± 0.32.

As to STVGSAISRKLGDMRNSATFKSFE [TPD52L2], the protein stability index reads like this: (treatment: DMSO) 3.28 ± 0.2; (treatment: MLN4924 1 uM, 8 h) 3.28 ± 0.31.

The sequence SVCFIFTITIGMFPAVTVEVKSSI [SLC29A1] yielded a protein stability index (treatment: DMSO) of 3.17 ± 0.55 and a protein stability index (treatment: MLN4924 1 uM, 8 h) of 3.46 ± 0.34.

As for SVPDVPKSMAWCENSICVGFKRDY [VPS39], the protein stability index is, setting by setting: (treatment: DMSO) 2.91 ± 0.16; (treatment: MLN4924 1 uM, 8 h) 2.94 ± 0.25.

In the case of SVQQNGSIYIHVYFTKSGFHPDPR [CLPTM1], the protein stability index reads like this: (treatment: DMSO) 3.14 ± 0.98; (treatment: MLN4924 1 uM, 8 h) 2.29 ± 0.56.

For SWGWDLGRSRLYHDGKNQPGVAYP [SPSB4], the protein stability index (treatment: DMSO) is 2.72 ± 0.29 and the protein stability index (treatment: MLN4924 1 uM, 8 h) came to 2.56 ± 0.26.

For SWVVRVQAAKLLGSMEQVSSHFLE [INTS4], the protein stability index turned out to be 2.47 ± 0.45 (treatment: DMSO) and 2.53 ± 0.43 (treatment: MLN4924 1 uM, 8 h).

As for SYDCTVKLWDPVDGSVVRDFEHRP [WDR88], the protein stability index is, setting by setting: (treatment: DMSO) 3.44 ± 0.22; (treatment: MLN4924 1 uM, 8 h) 3.62 ± 0.3.

Consider TAFCTHVFPETAFIAVTSYQNHKI [TBX5], for which the protein stability index runs as follows: (treatment: DMSO) 2.31 ± 0.41; (treatment: MLN4924 1 uM, 8 h) 2.27 ± 0.42.

As to TEDEKKELENLAAMDLELQKIAEK [CHGB], the protein stability index amounted to 5.47 ± 0.22 (treatment: DMSO) and 5.57 ± 0.083 (treatment: MLN4924 1 uM, 8 h).

Regarding TEFTLGDDKHYGGFTNKQLQSGQE [PTPRD], the protein stability index by setting is: (treatment: DMSO) 4.91 ± 0.2; (treatment: MLN4924 1 uM, 8 h) 4.77 ± 0.13.

In the case of TELSFLVTTHQPTNLVLPSNGSMH [EDNRA], the protein stability index is 2.67 ± 0.33 (treatment: DMSO) and 2.44 ± 0.42 (treatment: MLN4924 1 uM, 8 h).

As for TEPMAWNETADLGLDIGAQGEPLG [CTNNB1], the protein stability index by setting is: (treatment: DMSO) 5.29 ± 0.23; (treatment: MLN4924 1 uM, 8 h) 5.25 ± 0.18.

On to TEQLIEAVNNGDFEAYAKICDPGL [CAMK2B], for which the protein stability index runs as follows: (treatment: DMSO) 4.19 ± 0.22; (treatment: MLN4924 1 uM, 8 h) 4.19 ± 0.23.

In the case of TESEAHYSSQLSQVQSLITNVESQ [KRT34], the protein stability index is 4.83 ± 0.31 (treatment: DMSO) and 4.78 ± 0.21 (treatment: MLN4924 1 uM, 8 h).

Consider TFFEVSPLCNFNIIESFTELARIV [RAB40A], for which the protein stability index is, setting by setting: (treatment: DMSO) 2.53 ± 0.42; (treatment: MLN4924 1 uM, 8 h) 2.43 ± 0.28.

For the sequence TFVFLASLLVLIEPVAAGSGIPEV [CLCN6], the protein stability index (treatment: DMSO) stood at 2.91 ± 0.58 and the protein stability index (treatment: MLN4924 1 uM, 8 h) is 2.71 ± 0.6.
